The values that follow come from US20090170219, “Nucleic acid capable of binding to immunoglobulin G and use thereof” (published 2009).

In general, Kd refers to the concentration at which binding is half-saturated.

To fix the notation:
B1: SEQ ID NO:19 (ssRNA)
RNA: GGGUACGAGUCUGGACUUGCAACAAGGUGCUCCACCUACCUAGUGGAACUUGCUGAUGAGGCUCACAACAGGC
modifications: 2'-F at all pyrimidines
B2: SEQ ID NO:23 (ssRNA)
RNA: GGGUACGAGUCUGGACUUGCAACCUAAUGCGGUGCUCCUCUGGAACCAUUAGCUGUUGCAAAUGAGGCUCACAACAGGC
modifications: 2'-F at all pyrimidines
B3: SEQ ID NO:22 (ssRNA)
RNA: GGGUACGAGUCUGGACUUGCAAUACGAGGUGCUCCAAGGAAUCGCCCUGGAACUCGACGACGUGAGGCUCACAACAGGC
modifications: 2'-F at all pyrimidines
B4: SEQ ID NO:20 (ssRNA)
RNA: GGGUACGAGUCUGGACUUGCAAGGUGCUCCGUUAGCAUUGCGGAACUUGCAAUAUAUCCUAUUGAGGCUCACAACAGGC
modifications: 2'-F at all pyrimidines
B5: SEQ ID NO:21 (ssRNA)
RNA: GGGUACGAGUCUGGACUUGCAACGGAUACAGGUGCUCCGAUCUUCGGAACUGGCGUUGGCGGUGAGGCUCACAACAGGC
modifications: 2'-F at all pyrimidines
B6: SEQ ID NO:15-3 (30F-3) (mixed)
RNA: GGAGGUGCUCCGCGAGCCACGCGGAACUCC
modifications: deoxy G1 G2 C11 C13 A15-A19 C20 C22 C29 C30; 2'-F U6 C8 U9 C10 C27 U28; rest 2'-OH
B7: SEQ ID NO:15-4 (30F-4) (mixed)
RNA: GGAGGUGCUCCGCGGAAACGCGGAACUCC
modifications: deoxy G1 G2 C13 G15 A16 A17 A18 C19 C21 C28 C29; 2'-F U6 C8 U9 C10 C11 C26 U27; rest 2'-OH
B8: SEQ ID NO:11 (ssRNA)
RNA: GGACGAGUUACAGGUGCUCCAUCAACAAAAUGUUACAUGGAACUGUAACGGCCG
modifications: 2'-F at all pyrimidines
B9: SEQ ID NO:10 (ssRNA)
RNA: GGAAUGGACGAGUUACAGGUGCUCCAUCAACAAAAUGUUACAUGGAACUGUAACGGCCGACAU
modifications: 2'-F at all pyrimidines
B10: SEQ ID NO:4 (ssRNA)
RNA: GGGACACAAUGGACGGCCAACGUUAACUGGAACUGUAAAUCAGGUGCUCGAGAUAACGGCCGACAUGAGAG
modifications: 2'-F at all pyrimidines
B11: SEQ ID NO:2 (ssRNA)
RNA: GGGACACAAUGGACGUCAAAGAAGAGGUGCUCUGCGAGCCACGCGGAACUCUAUAACGGCCGACAUGAGAG
modifications: 2'-F at all pyrimidines
B12: SEQ ID NO:3 (ssRNA)
RNA: GGGACACAAUGGACGGCGUAAAAUGGAACCUGGGUUAGAAUAUCGGGGGUGCUCCGUAACGGCCGACAUGAGAG
modifications: 2'-F at all pyrimidines
B13: SEQ ID NO:6 (ssRNA)
RNA: GGGACACAAUGGACGGCUGGUAAGGUGCUCGGAAUGGAACUCGUCAUUCGGAACUUAACGGCCGACAUGAGAG
modifications: 2'-F at all pyrimidines
B14: SEQ ID NO:5 (ssRNA)
RNA: GGGACACAAUGGACGACUACAAGGUGCUCCUUGAAAUGUUAAAUGAGGAACUUGUAACGGCCGACAUGAGAG
modifications: 2'-F at all pyrimidines
B15: SEQ ID NO:8 (ssRNA)
RNA: GGGACACAAUGGACGAAAGGUGCUCCAACUAAAUUUGGAACUUUCCACCCAUAAUAACGGCCGACAUGAGAG
modifications: 2'-F at all pyrimidines
B16: SEQ ID NO:7 (ssRNA)
RNA: GGGACACAAUGGACGGGUGUUACAGGUGCUUGAUAAAGGUAGAAAAUCAAACUGUAACGGCCGACAUGAGAG
modifications: 2'-F at all pyrimidines
B17: SEQ ID NO:9 (ssRNA)
RNA: GGGCCACAGCGAGGUGCUCCACCAUUCACGUGGAACUCGUGGGCAGCCCGUCCCCGCGUGUGGUCGG
modifications: 2'-F at all pyrimidines
B18: SEQ ID NO:17-8 (23F25) (mixed)
RNA: GGAGGUGCUCCGAAAGGAACUCCAAAAAAAAAAAAAAAA
modifications: 2'-OMe G1 G2 G12-A15 C22 C23; 2'-F U6 C8 U9 C10 C11 C20 U21; deoxy A16 tail; rest 2'-OH
B19: SEQ ID NO:17-5 (23F11) (mixed)
RNA: B18 RNA
modifications: deoxy G1 G2 G12-G17 C22 C23 and A16 tail; 2'-F U6 C8 U9 C10 C11 C20 U21; rest 2'-OH
B20: SEQ ID NO:17-2 (23F2) (mixed)
RNA: B18 RNA
modifications: deoxy G1 G2 G12-A15 C22 C23 and A16 tail; 2'-F U6 C8 U9 C10 C11 C20 U21; rest 2'-OH
B21: SEQ ID NO:17-6 (23F12) (mixed)
RNA: B18 RNA
modifications: deoxy G1 G2 G7 G12-A15 C22 C23 and A16 tail; 2'-F U6 C8 U9 C10 C11 C20 U21; rest 2'-OH
B22: SEQ ID NO:17-4 (23F10) (mixed)
RNA: B18 RNA
modifications: deoxy G1 G2 C11 G12-A15 C22 C23 and A16 tail; 2'-F U6 C8 U9 C10 C20 U21; rest 2'-OH

The target in one series is T1, IgG1 (human, UniProt P01857-1 P01857-1:1-330). The series is described as follows: SPR. To be noted: tags: Calbiochem; chain copies: 2.
T1 sequence (P01857 other isoform, or with tags, fused parts or gaps): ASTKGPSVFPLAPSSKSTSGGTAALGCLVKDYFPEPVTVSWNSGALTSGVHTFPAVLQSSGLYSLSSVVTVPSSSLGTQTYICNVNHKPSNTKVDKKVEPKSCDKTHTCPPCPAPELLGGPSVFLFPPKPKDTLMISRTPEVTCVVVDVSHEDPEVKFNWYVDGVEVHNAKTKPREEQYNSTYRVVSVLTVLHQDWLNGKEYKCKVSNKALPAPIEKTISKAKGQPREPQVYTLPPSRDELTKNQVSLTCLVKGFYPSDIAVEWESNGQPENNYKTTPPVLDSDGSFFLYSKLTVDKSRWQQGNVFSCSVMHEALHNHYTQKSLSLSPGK
On to B1, for which the binding result is reported as “binds”.

In the case of B2, the binding result was “binds”.

With GGAGGUGUUCCGAAAGGAACUCC (ssRNA, 2'-F at all pyrimidines [2'-F pyrimidines at 6,8,9,10,11,20,21,22,23]) [SEQ ID NO:17 C8U], the binding result was “no binding”.

The series is the same for the next values; noted with them: tags: Calbiochem; chain copies: 2; GGUGCU bulge.
With B3, the binding result is “binds”.

As for B4, the binding result is on record as “binds”.

Consider B5, for which the binding result is “binds”.

The same series, now with this note: tags: Calbiochem; chain copies: 2; label: 3' A16 tail for immobilisation.
Turning to GGAGGUGCUCGAAAGAACUCC (ssRNA, 2'-F at all pyrimidines) [SEQ ID NO:18], the binding result is “binds”.

Consider GGACAGGUGCUCUGCGAGCCACGCGGAACUGUCC (ssRNA, 2'-F at all pyrimidines) [SEQ ID NO:13], for which the binding result was “binds”.

GGACAGGUGCUCCAUCAACAAAAUGUUACAUGGAACUGUCC (ssRNA, 2'-F at all pyrimidines) [SEQ ID NO:12]: the binding result is recorded as “binds”.

The target of a further series is T1, IgG1. The series is described as follows: SPR; parent SEQ 15 ++++. To be noted: tags: Calbiochem; chain copies: 2. For orientation: In SPR one partner is held on a chip, and binding of the other changes the refractive index at the surface.
For the molecule B6, the binding result is on record as “binds”.

Take B7: the binding result is listed as “binds”.

For another series, the target named is T1, IgG1. Description: SPR; solution A. The following applies: tags: Calbiochem; chain copies: 2; label: 3' A16 tail for SPR; 5' biotin for serum pull-down. As to the method:
(§1) Used for the measurements was BIAcore 2000 manufactured by BIAcore. Used as the sensor chip was the SA chip having streptavidin immobilized thereon. Bound thereto was about 1000 RU of 16-residue Poly dT having biotin bound to the 5′ end thereof. The RNA for use as the ligand had 16-residue Poly A added to the 3′ end thereof, and immobilized to the SA chip via a bond between dT and A. The amount immobilized was adjusted to about 1000 RU by injecting 60 μL at a concentration of 0.01 μg/μL. 70 μL of IgG-Fc for analyte (manufactured by Athens Research & Technology), adjusted to 0.6 μM, was injected. The running buffer used had the same components as those of the solution A used in SELEX.
The dissociation constant was determined by immobilizing an RNA having 16-residue PolyA added to the 3′ end thereof onto a sensor chip via an A-dT bond, injecting different concentrations of IgG (0.6 μM to 0.05 μM), and performing surface plasmon resonance.
Measurements were performed in the same manner as Example 1 by immobilizing an RNA having 16-residue Poly A added thereto via an A-pT bond, and injecting IgG thereto.
In turn, GGAGGUGCUCUGCGAGCCACGCGGAACUCC (ssRNA, 2'-F at all pyrimidines) [SEQ ID NO:15] returned a Kd of 5 nM. In other words, the single-digit nanomolar range.

Staying with this series, now noted: tags: Calbiochem; chain copies: 2; label: 3' A16 tail for immobilisation.
With B8, the Kd turned out to be 1 nM.

In turn, B9 registered a Kd of 6 nM.

With GGACAGGUGCUCUGCGGAAACGCGGAACUGUCC (ssRNA, 2'-F at all pyrimidines) [SEQ ID NO:14], the Kd amounted to 4 nM. This Kd lies about 1.5-fold lower than the previous one.

For the molecule GGACAGGUGCUCCGAAAGGAACUGUCC (ssRNA, 2'-F at all pyrimidines) [SEQ ID NO:16], the Kd is 6 nM.

Still in this series, the particulars now being: tags: Calbiochem; chain copies: 2; label: 3' A16 tail for immobilisation; GGUGCU bulge.
As to B10, the Kd came to 20 nM.

Consider B11, for which the Kd is 5 nM.

For B12, the Kd stood at 10 nM.

B13 gave a Kd of 1 nM.

Turning to B14, binding was put at a Kd of 30 nM. This Kd lies about 30-fold higher than the previous one.

B15 had a Kd of 3 nM.

For the molecule B16, the affinity, expressed as Kd, was 0.001 nM. This Kd is about 3000-fold lower than that of the molecule before.

The series is the same for the next values; noted with them: tags: Calbiochem; chain copies: 2; label: 3' A16 tail for immobilisation; GGUGCU bulge (vsfold4).
For B17, the Kd is 20 nM.

The next series addresses T1, IgG1. The series is described as follows: SPR; parent SEQ 17 ++. The following applies: tags: Calbiochem; chain copies: 2. As to the method: as §1
The RNAs were prepared by chemical synthesis (manufactured by Gene Design). Their binding affinities were measured by a surface plasmon resonance method as in Example 1. Used as the IgG was human IgG1 (manufactured by Calbiochem).
On to GGAGGUGCUCCGAAAGGAACUCCAAAAAAAAAAAAAAAA (mixed, as 17-8 with 2'-OMe C11) [SEQ ID NO:17-13 (23F43)], for which the binding result is listed as “binds”.

As to GGAGGUGCUCCGAAAGGAACTCCAAAAAAAAAAAAAAAA (mixed, 2'-F U6 C8 U9 C20; deoxy C10 C11 T21 C22 C23 and A16 tail; rest 2'-OH) [SEQ ID NO:17-1 (23F1)], the binding result is on record as “binds”.

As for GGAGGUGCUCCGAAAGGAACUCCAAAAAAAAAAAAAAAA (mixed, as 17-7 with 2'-OMe U9) [SEQ ID NO:17-14 (23F31)], the binding result was “binds”.

In the case of GGAGGUGCUCCGAAAGGAACUCCAAAAAAAAAAAAAAAA (mixed, as 17-8 with 2'-OMe C10) [SEQ ID NO:17-12 (23F42)], the binding result is recorded as “binds”.

Regarding B18, the binding result was “binds”.

Regarding B19, the binding result was “binds”.

Regarding GGAGGUGCUCCGAAAGGAACUCCAAAAAAAAAAAAAAAA (mixed, as 17-8 with 2'-OMe U9) [SEQ ID NO:17-11 (23F41)], the binding result is “binds”.

Consider GGAGGUGCUCCGAAAGGAACUCCAAAAAAAAAAAAAAAA (mixed, as 17-7 with 2'-OMe G17) [SEQ ID NO:17-10 (23F33)], for which the binding result is recorded as “binds”.

In the case of B20, the binding result is on record as “binds”.

Take B21: the binding result was “binds”.

In the case of B22, the binding result was “binds”.
